Assays:
[1] = biological target: ENO1 mutant 1-189 (human) (UniProt P06733); assay: ELISA, 400 ng protein coated, 10 microgram of EN10 mAb
[2] = biological target: ENO1 mutant 1-297 (human) (UniProt P06733); assay: as above
[3] = biological target: ENO1 with amino acid residues 297 to 434 deleted (human) (UniProt P06733); assay: ELISA, ENO1 deletion mutant Δ297-434 coated, 10 microgram of EN10 mAb
Sequence of ENO1 with amino acid residues 297 to 434 deleted (human) (P06733 1-296, stated change not applied): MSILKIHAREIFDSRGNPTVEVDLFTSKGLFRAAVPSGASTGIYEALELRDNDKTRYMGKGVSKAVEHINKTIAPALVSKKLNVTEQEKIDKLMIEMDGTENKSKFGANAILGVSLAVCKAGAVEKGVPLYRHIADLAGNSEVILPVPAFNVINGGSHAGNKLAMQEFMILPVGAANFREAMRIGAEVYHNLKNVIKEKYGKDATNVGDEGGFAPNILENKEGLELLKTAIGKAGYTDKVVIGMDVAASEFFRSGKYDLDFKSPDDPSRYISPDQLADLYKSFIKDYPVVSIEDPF

B1: EN10 mAb (antibody, V domains shown)
VH: EVQLQQSGPELVKPGASVKMSCKASGYTFTSCVMNWVKQKPGQGLEWIGYINPYNDGTKYNEKFKGKATLTSDKSSSTAYMELSSLTSEDSAVYYCAREGFYYGNFDNWGQGTTLTVSS
VL: DIQMTQSPASLSASVGETVTITCRASENIYSYLTWYQQKQGKSPQLLVYNAKTLPEGVPSRFSGSGSGTQFSLKINSLQPEDFGSYYCQHHYGTPYTFGGGTKLEITR
[1]
  OD405: 1.43 OD405
  OD405 as percent of that of the wild type ENO1: 42%
[2]
  OD405: 1.56 OD405
  OD405 as percent of that of the wild type ENO1: 39%
[3]
  OD450: 0.47
